Source: the RNAGym collection of RNA variant scans (doi:10.7554/elife.80360)

B1: CPEB3 Ribozyme (parent)
chain: GGGGGCCACAGCAGAAGCGUUCACGUCGCGGCCCCUGUCAGAUUCUGGUGAAUCUGCGAAUUCUGCUGU

Variants of: B1
Assay: self-cleavage, relative activity (ratio to wild type); higher = more cleavage; co-transcriptional

Row | Variant | self-cleavage
1 | C27G U61G | 0.172
2 | C27G U61C | 0.169
3 | C27A C45U | 0.596
4 | G28A A40C | 0.15
5 | G28U C39U | 0.171
6 | C27U C45A | 0.216
7 | C27U C45U | 0.35
8 | C27A U38G | 0.141
9 | G28U G56U | 0.137
10 | G28U G56C | 0.163
11 | G28U G56A | 0.14
12 | C27U A40C | 0.198
13 | U26G G41U | 0.756
14 | C27U G48U | 0.504
15 | C27U G48A | 0.431
16 | G28C U64C | 0.194
17 | G28A G48A | 0.19
18 | G28A G48U | 0.19
19 | G28A G48C | 0.213
20 | C27U U64A | 0.161
21 | C27A A52U | 0.547
22 | C27A A52G | 0.708
23 | C27A G48A | 0.745
24 | C27A G48U | 0.706

Row | Variant | self-cleavage
25 | C27A G48C | 0.652
26 | C27G C66G | 0.119
27 | C27A G68C | 0.765
28 | C27A G68U | 0.811
29 | G28C U38G | 0.133
30 | G28C U38A | 0.222
31 | C27U C34G | 0.24
32 | G28A U36A | 0.154
33 | C27A G31A | 0.171
34 | C27A G31U | 0.165
35 | C27U G31C | 0.143
36 | G28C U46C | 0.131
37 | G28C U46G | 0.118
38 | G28C U46A | 0.173
39 | G28U G68U | 0.208
40 | G28U G68A | 0.195
41 | G28U A51U | 0.182
42 | C27U C39U | 0.254
43 | G28U A42C | 0.153
44 | C27U G37A | 0.187
45 | C27U U49C | 0.301
46 | C27U U49A | 0.442
47 | G28U U61A | 0.204
48 | G28C U61A | 0.256

Row | Variant | self-cleavage
49 | G28C U61G | 0.229
50 | C27A C29U | 0.21
51 | C27A C29A | 0.184
52 | C29G A52C | 0.467
53 | G28A C45U | 0.202
54 | G28A G30A | 0.156
55 | G28A G30U | 0.155
56 | C29A G47A | 0.796
57 | G28A U38A | 0.176
58 | C27A U49A | 0.763
59 | G28U U69A | 0.183
60 | G28U U69C | 0.235
61 | C27U A59C | 0.127
62 | C27U A59G | 0.246
63 | C27U A59U | 0.212
64 | C27G C54A | 0.187
65 | C27G A60C | 0.238
66 | C29A G68A | 0.914
67 | G28A U49A | 0.181
68 | C27U A60U | 0.205
69 | G28A C63U | 0.195
70 | C29A G37A | 0.207
71 | G28C A42G | 0.128
72 | G28C A42C | 0.183

Row | Variant | self-cleavage
73 | C27U U62C | 0.189
74 | C27U U62G | 0.276
75 | C27U U55G | 0.188
76 | C27G C63A | 0.197
77 | G28U A60U | 0.138
78 | G28C U55A | 0.241
79 | G28C C33G | 0.166
80 | G28A C35G | 0.188
81 | C27G G47U | 0.17
82 | C27G G47A | 0.265
83 | C27U A42U | 0.167
84 | U26G G30A | 0.509
85 | G28U C57G | 0.161
86 | G28U C57A | 0.188
87 | G28C C63G | 0.198
88 | G28C C63A | 0.186
89 | C27U U61A | 0.22
90 | C27U U61G | 0.277
91 | C27A C57G | 0.298
92 | G28C A60C | 0.217
93 | C29A A60G | 0.334
94 | C29A A60C | 0.307
95 | C29A C63U | 0.465
96 | G28C C54A | 0.151

Row | Variant | self-cleavage
97 | C29G A51C | 0.484
98 | C29G A51G | 0.541
99 | C29G A51U | 0.439
100 | U26G U36A | 0.186
101 | C27A U53G | 0.338
102 | C29A G58U | 0.795
103 | C29A G58C | 0.685
104 | G28A G41A | 0.178
105 | G28A G41U | 0.148
106 | C27A G41U | 0.16
107 | C27A U61A | 0.28
108 | C29A A59U | 0.283
109 | C29A A59C | 0.274
110 | C29A G50C | 0.71
111 | G28U C29G | 0.129
112 | C29A U55G | 0.323
113 | G28A U55G | 0.167
114 | G28A U55A | 0.169
115 | G28U C35U | 0.192
116 | C27G G41C | 0.176
117 | C27A G37A | 0.203
118 | U26G G58C | 0.799
119 | C29A C45G | 0.605
120 | C29A C45A | 0.635

Row | Variant | self-cleavage
121 | G28A C54A | 0.175
122 | G28U C45G | 0.162
123 | C27G A42U | 0.136
124 | C27A G58C | 0.605
125 | G28A U64C | 0.151
126 | G28A U64G | 0.205
127 | C27G C29U | 0.121
128 | C27G C29A | 0.186
129 | G28C G30U | 0.2
130 | C27G C39G | 0.263
131 | C27G C39A | 0.166
132 | U26G G65U | 0.53
133 | C29G C34U | 0.495
134 | C29G C34A | 0.227
135 | G28A A59C | 0.185
136 | G28A A59G | 0.17
137 | G28U G50U | 0.165
138 | C29A U69A | 0.91
139 | C29A U69G | 0.864
140 | G28U U62C | 0.127
141 | G28C C39U | 0.207
142 | G28C C39A | 0.156
143 | C27G U69G | 0.29
144 | C27G C57U | 0.189

Row | Variant | self-cleavage
145 | G28U A40U | 0.213
146 | U26G U62A | 0.818
147 | U26G U62G | 0.617
148 | G28U G65A | 0.146
149 | G28U G65U | 0.2
150 | C29A U61G | 0.613
151 | C29A U61C | 0.374
152 | C27A G30U | 0.232
153 | G28U A52G | 0.18
154 | G28A A51G | 0.229
155 | G28A U62G | 0.208
156 | C29A U67G | 0.79
157 | C27G G37U | 0.165
158 | C27G G37A | 0.135
159 | C29A C39A | 0.327
160 | C27A C32U | 0.543
161 | C27U G28A | 0.126
162 | G28A | 0.213
163 | G28U | 0.178
164 | G28C | 0.173
165 | C29A C66A | 0.334
166 | C29A G56U | 0.367
167 | C29A G56A | 0.492
